Here are results for two molecules from patent US20230052369A1 (published 2023).

Assay [1] has as its target T1, purified human monomeric 4-1BB (UniProt Q07011 24-186). The assay is described as follows: SPR; 25 °C. In general terms: In SPR one partner is held on a chip, and binding of the other changes the refractive index at the surface.
In assay [2] the target is T1, purified human monomeric 4-1BB. Briefly: SPR; 25 °C, steady state affinity.

T1 sequence (Q07011 other isoform, or with tags, fused parts or gaps): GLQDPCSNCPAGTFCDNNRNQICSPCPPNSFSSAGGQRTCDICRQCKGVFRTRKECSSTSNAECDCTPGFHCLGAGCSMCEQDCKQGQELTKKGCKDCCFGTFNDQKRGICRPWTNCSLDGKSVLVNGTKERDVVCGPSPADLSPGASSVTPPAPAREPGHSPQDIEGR

B1: v20036 (antibody, V domains shown)
VH: QVQLQESGPGLVQPTQSLSITCTVSGFSLISYGVHWVRQSPGKGLEWLGVIWSGGSTDYNAAFISRLSISKDNSKSQVFFKMNSLQADDTAIYYCARNPLTATVMDYWGQGTSVTVSS
VL: DIVMTQSQKFMSTSVGDRVSVTCKASQNVGTNVAWYQQKPGQSPKALIYSASYRDSGVPDRFTGSGSGTDFTLTISNVQSEDLAEYLCQQYNSYPLTFGAGTKLELKR
A word on the Kd: it is the concentration at which binding is half-saturated. Read a low Kd as a tighter complex. In turn, B1 registered a Kd in assay [1] of 256 nM.

B2: v28696 (antibody, V domains shown)
VH: QVQLQESGPGLVKPSETLSLTCTVSGFSLISYGVHWIRQPPGKGLEWIGVIWSGGSTDYNPSLKSRVTISVDTSKNQFSLKLSSVTAADTAVYYCARNPLTATVMDYWGQGTLVTVSS
VL: DIQMTQSPSSLSASVGDRVTITCRASQNVGTNVAWYQQKPGKAPKALIYSASYRDSGVPSRFSGSGSGTDFTLTISSLQPEDFATYYCQQYNSYPLTFGGGTKVEIKR
In the case of B2, in assay [2], binding was characterised by a dissociation constant (Kd) of 687 nM.
